Data reported in article PMC11452484.

How the values were obtained:
[1] = target: short pAgo (SPARSA Ago subunit);Sir2-APAZ (Geobacter sulfurreducens;Geobacter …, UniProt Q74DF5;Q74DF6 1-473;1-587, |); test: SEC
[2] = target: short pAgo (SPARSA Ago subunit);Sir2-APAZ N142A (Geobacter sulfurreducens;Geobacter …, UniProt Q74DF5;Q74DF6 1-473;1-587, |N142A); test: cryo-EM structure

B1: gRNA-target ssDNA (DNA:RNA)
RNA: AUUCCUGUUAGAGCUGUUAAC
DNA: AAGTTAACAGCTCTAACAGGAATAA
modifications: 5'-phosphate on guide RNA
- binding result [1]: binds
- binding result [2]: binds
